Test results published in US20160046707A1 (EISAI R AND D MANAGEMENT, published 2016).
Substitutions are numbered along the chain they refer to.

B1: chimeric 36F7C10 antibody (36F7C10-hFc) (antibody, V domains shown)
VH: QVQLQQPGAELVKPGASVKMSCKASGYTFTNYWMHWVKQRPGQGLEWIGVIDPSDSYTTYNQKFKGKATLTVDTSSSTAYMQLSSLTSEDSAVYYCTRGNYGVDYAMDYWGQGTSVTVSS
VL: DIQMTQSPASLSASVGETVTITCGASENIYGALNWYQRKQGKSPQLLIYGATNLADGMSSRFSGSGSGRQYSLKISSLHPDDVATYYCQNVLITPYTFGGGTKLEIK
notes: also called chimeric 36F710; Chimeric MAb
B2: humanized anti-human CCL20 antibody 36LK3/36HC2 (antibody, human IgG1, kappa, V domains shown)
VH: QVQLVQSGAEVKKPGASVKVSCKASGYTFTNYWMHWVRQAPGQGLEWMGVIDPSDSYTTYAQKFQGRVTMTVDTSTSTVYMELSSLRSEDTAVYYCARGNYGVDYAMDYWGQGTLVTVSS
VL: DIQMTQSPSSLSASVGDRVTITCGASENIYGALNWYQRKPGKAPKLLIYGATNLADGVPSRFSGSGSGRDYTLTISSLQPEDFATYYCQNVLITPYTFGQGTKLEIKR
notes: expressed in HEK293 cells; also called HC2/LK3; HC2LK3
B3: humanized anti-human CCL20 antibody 36LC3/36HC2 (antibody, human IgG1, kappa, V domains shown)
VH: B2 VH
VL: B2 VL with G24R, R38Q, D70Q, T72S, Q100G
notes: expressed in HEK293 cells; also called HC2/LC3; HC2LC3
B4: mouse anti-human CCL20 monoclonal antibody 36F7C10 (antibody, V domains shown)
VH: B1 VH
VL: B1 VL
notes: Mouse hybridoma antibody; also called MouseMAb; parental mouse clone 36F7C10

Target: T1, rhesus CCL20-secreted alkaline phosphatase (SEAP) fusion (rhesus monkey)
T1 construct: also called rCCL20; rhesus CCL20-SEAP; not shown: the SEAP reporter (cDNA from Clontech pSEAP-Enhancer) and its junction to CCL20
T1 chain: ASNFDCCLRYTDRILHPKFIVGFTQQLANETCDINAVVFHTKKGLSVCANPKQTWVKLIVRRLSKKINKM
Test: SPR (Biacore), bivalent format, KD ratio against human CCL20 (Table 17)
Method: (§1) We also used surface plasmon resonance (Biacore™) analysis to test whether HC2/LC3 and HC2/LK3 can bind to mouse, cynomolgus, or rhesus macaque CCL20 orthologs. Monoclonal mouse anti-human placental alkaline phosphatase was immobilized on all four flow cells of a CM5 chip at a flow rate of 25 μl/min. 25 μl of a 2 nM solution of human, rhesus, cynomolgus, or mouse CCL20-SEAP in HBS-EP buffer was injected over flow cell 2, 3, or 4. For antibody binding, 240 μl of 0-80 nM dilutions of HC2/LC3, HC2/LK3, or 2F5-5 MAb in HBS-EP buffer (or buffer alone) was injected over all four flow cells at a flow rate of 50 μl/min. Dissociation followed for 45 min. Flow cell 1 (anti-SEAP alone) was used as a reference for all flow cells. Regeneration of the flow cells was performed with 10 mM glycine at pH 2.25. Due to regeneration effects on the capturing capacity of the chips, antibody injections were performed sequentially from low to high concentration. Data fitting was performed using a 1:1 Langmuir model.
(§2) In contrast, chimeric, HC2/LC3, and HC2/LK3 antibodies effectively bound to human, rhesus, and cynomolgus CCL20 (Table 17).

**Q.** With B1 as the binder, how does the “fold higher KD than for human CCL20” value read?
**A.** The value was ~3 fold.

**Q.** How did the “fold higher KD than for human CCL20” value turn out when B2 was run?
**A.** Its value is ~3 fold.

**Q.** How did the “fold higher KD than for human CCL20” value turn out when B3 was run?
**A.** The value was ~3 fold.

Target: T2, cynomolgus CCL20-secreted alkaline phosphatase (SEAP) fusion (cynomolgus monkey)
T2 construct: also called cCCL20; cynomolgus CCL20-SEAP; not shown: the SEAP reporter (cDNA from Clontech pSEAP-Enhancer) and its junction to CCL20
T2 chain: T1 chain with V38I
Test: as above
Method: as §1, §2

**Q.** B1 was tested. Which “fold higher KD than for human CCL20” value did it give?
**A.** The value was ~3 fold.

**Q.** For B2, which “fold higher KD than for human CCL20” value is on record?
**A.** Its value is ~3 fold.

**Q.** How did the “fold higher KD than for human CCL20” value turn out when B3 was run?
**A.** Its value is ~3 fold.

target: T3, recombinant human CCL27 (human, UniProt Q9Y4X3 25-112); test: ELISA, plate-bound chemokine (1 ug/ml), antibody 10 ug/ml, OD450
T3 construct: also called CTACK
T3 sequence (looked up): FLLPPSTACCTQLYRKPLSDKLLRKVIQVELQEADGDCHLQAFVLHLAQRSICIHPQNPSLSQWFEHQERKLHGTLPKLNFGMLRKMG
Method: (§3) The wells of a 96-well plate were coated with 1 μg/ml of the recombinant human chemokines in PBS (−). After overnight incubation at 4° C., the wells were blocked with 1× Block-Ace (Dainippon Sumitomo Pharma, UK-B80) for 1 hour at room temperature. After washing twice with 0.02% Tween 20/PBS (−), we added 50 μl of 10 μg/ml purified 36F7C10, chimeric 36F710, HC2/LK3, or HC2/LC3 in 0.02% Tween 20/PBS (−) to each well. The wells were incubated for 1 hour at room temperature and washed three times as described in Example 3. […] After washing five times, a TMBZ (3,3′,5,5′-tetramethylbenzidine) solution (1%, in N,N-Dimethylformamide) was added to the wells and incubated for 15-30 minutes. The reaction was stopped by adding an equal volume of a 2 M H₂SO₄ stopping solution, and the optical density was read at 450 nm by ARVO (PerkinElmer).

**Q.** Does B4 bind?
**A.** Result: no binding (tested: 10 ug/ml)

**Q.** Does B1 bind?
**A.** Result: no binding (tested: 10 ug/ml)

**Q.** Does B2 bind?
**A.** Result: no binding (tested: 10 ug/ml)

**Q.** Does B3 bind?
**A.** Result: no binding (tested: 10 ug/ml)

target: T4, recombinant human CCL22 (human, UniProt O00626 25-93); test: as above
T4 construct: also called MDC
T4 sequence (looked up): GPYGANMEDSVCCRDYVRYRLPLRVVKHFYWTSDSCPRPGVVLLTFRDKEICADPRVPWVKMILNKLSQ
Method: as §3

**Q.** Does B4 bind?
**A.** Result: no binding (tested: 10 ug/ml)

**Q.** Does B1 bind?
**A.** Result: no binding (tested: 10 ug/ml)

**Q.** Does B2 bind?
**A.** Result: no binding (tested: 10 ug/ml)

**Q.** Does B3 bind?
**A.** Result: no binding (tested: 10 ug/ml)

target: T5, recombinant human CCL21 (human, UniProt O00585 24-134); test: as above
T5 construct: also called 6Ckine/SLC
T5 sequence (looked up): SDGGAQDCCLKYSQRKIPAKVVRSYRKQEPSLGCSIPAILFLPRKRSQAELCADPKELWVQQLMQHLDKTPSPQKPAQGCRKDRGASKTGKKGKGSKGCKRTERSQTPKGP
Method: as §3

**Q.** Does B4 bind?
**A.** Result: no binding (tested: 10 ug/ml)

**Q.** Does B1 bind?
**A.** Result: no binding (tested: 10 ug/ml)

**Q.** Does B2 bind?
**A.** Result: no binding (tested: 10 ug/ml)

**Q.** Does B3 bind?
**A.** Result: no binding (tested: 10 ug/ml)

target: T6, recombinant human CCL7 (human, UniProt P80098 24-99); test: as above
T6 construct: also called MARC
T6 sequence (P80098 24-99 limits assumed): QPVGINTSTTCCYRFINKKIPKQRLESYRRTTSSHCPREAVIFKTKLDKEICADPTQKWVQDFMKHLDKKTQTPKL
Method: as §3

**Q.** Does B4 bind?
**A.** Result: no binding (tested: 10 ug/ml)

**Q.** Does B1 bind?
**A.** Result: no binding (tested: 10 ug/ml)

**Q.** Does B2 bind?
**A.** Result: no binding (tested: 10 ug/ml)

**Q.** Does B3 bind?
**A.** Result: no binding (tested: 10 ug/ml)

target: T7, recombinant human CCL4 (human, UniProt P13236 24-92); test: as above
T7 construct: also called MIP-1β
T7 sequence (looked up): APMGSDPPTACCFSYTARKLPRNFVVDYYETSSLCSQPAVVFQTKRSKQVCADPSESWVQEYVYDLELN
Method: as §3

**Q.** Does B4 bind?
**A.** Result: no binding (tested: 10 ug/ml)

**Q.** Does B1 bind?
**A.** Result: no binding (tested: 10 ug/ml)

**Q.** Does B2 bind?
**A.** Result: no binding (tested: 10 ug/ml)

**Q.** Does B3 bind?
**A.** Result: no binding (tested: 10 ug/ml)

target: T8, recombinant human CCL2 (human, UniProt P13500 24-99); test: as above
T8 construct: also called MCP-1/MCAF/JE
T8 sequence (P13500 24-99 limits assumed): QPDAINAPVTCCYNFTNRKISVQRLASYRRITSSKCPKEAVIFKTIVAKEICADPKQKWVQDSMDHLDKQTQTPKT
Method: as §3

**Q.** Does B4 bind?
**A.** Result: no binding (tested: 10 ug/ml)

**Q.** Does B1 bind?
**A.** Result: no binding (tested: 10 ug/ml)

**Q.** Does B2 bind?
**A.** Result: no binding (tested: 10 ug/ml)

**Q.** Does B3 bind?
**A.** Result: no binding (tested: 10 ug/ml)

target: T9, recombinant human CXCL12 (human, UniProt P48061-2 22-89); test: as above
T9 construct: also called SDF-1/PBSF
T9 sequence (P48061 22-89 limits assumed): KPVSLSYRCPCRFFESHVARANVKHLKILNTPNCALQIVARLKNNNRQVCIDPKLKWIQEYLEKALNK
Method: as §3

**Q.** Does B4 bind?
**A.** Result: no binding (tested: 10 ug/ml)

**Q.** Does B1 bind?
**A.** Result: no binding (tested: 10 ug/ml)

**Q.** Does B2 bind?
**A.** Result: no binding (tested: 10 ug/ml)

**Q.** Does B3 bind?
**A.** Result: no binding (tested: 10 ug/ml)

target: T10, recombinant human CXCL9 (human, UniProt Q07325 23-125); test: as above
T10 construct: also called MIG
T10 sequence (looked up): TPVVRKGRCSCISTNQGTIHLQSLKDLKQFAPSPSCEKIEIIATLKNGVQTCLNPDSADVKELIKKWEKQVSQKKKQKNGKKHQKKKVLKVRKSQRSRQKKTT
Method: as §3

**Q.** Does B4 bind?
**A.** Result: no binding (tested: 10 ug/ml)

**Q.** Does B1 bind?
**A.** Result: no binding (tested: 10 ug/ml)

**Q.** Does B2 bind?
**A.** Result: no binding (tested: 10 ug/ml)

**Q.** Does B3 bind?
**A.** Result: no binding (tested: 10 ug/ml)

target: T11, recombinant human CX3CL1 (Chemokine Domain) (human, UniProt P78423 25-100); test: as above
T11 construct: domain: Chemokine Domain; also called FKN
T11 sequence (looked up): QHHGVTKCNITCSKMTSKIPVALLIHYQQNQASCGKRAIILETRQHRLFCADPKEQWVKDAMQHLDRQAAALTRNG
Method: as §3

**Q.** Does B4 bind?
**A.** Result: no binding (tested: 10 ug/ml)

**Q.** Does B1 bind?
**A.** Result: no binding (tested: 10 ug/ml)

**Q.** Does B2 bind?
**A.** Result: no binding (tested: 10 ug/ml)

**Q.** Does B3 bind?
**A.** Result: no binding (tested: 10 ug/ml)

target: T12, human CCL20 anchored via a His-tag (human, UniProt P78556 27-96); test: ELISA on His-tag anchored human CCL20, antibody titrated (x axis 'Ab conc. (ug/ml)', falling from left to right), Abs 450
T12 construct: Construct not described; also called His-tag anchored CCL20; not shown: His-tag
T12 sequence (P78556 27-96 limits assumed): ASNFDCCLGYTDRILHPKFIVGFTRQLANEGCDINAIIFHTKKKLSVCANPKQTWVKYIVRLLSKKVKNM

**Q.** B4 was tested. Which “EC50 (read off the curve)” value did it give?
**A.** Its value is ~5 ng/mL.

**Q.** With B1 as the binder, how does the “EC50 (read off the curve)” value read?
**A.** Its value is ~8 ng/mL.

**Q.** B2 was tested. Which “EC50 (read off the curve)” value did it give?
**A.** The value was ~6 ng/mL.

**Q.** How did the “EC50 (read off the curve)” value turn out when B3 was run?
**A.** Its value is ~6 ng/mL.
